B1: PEX5 peptide 240-255 (Peroxisomal targeting signal 1 receptor), 16-mer library wild type / PEX14 Pex14 (PEX14 PEX14, residues 16-84) (parent)
chain 1: AEQWAAEFIQQQGTSD
chain 2: TPGSENVLPREPLIATAVKFLQNSRVRQSPLATRRAFLKKKGLTDEEIDMAFQQSGTAADEPSSLGPAT
B2: NCOA2 peptide 1073-1088 (Nuclear receptor coactivator 2), 16-mer library wild type / NSP3 UBl1 (ORF1ab Nsp3a Ub1, residues 819-925) (parent)
chain 1: PSDEGALLDQLYLALR
chain 2: APTKVTFGDDTVIEVQGYKSVNITFELDERIDKVLNEKCSAYTVELGTEVNEFACVVADAVIKTLQPVSELLTPLGIDLDEWSMATYYLFDESGEFKLASHMYCSFY
B3: NYNRIN peptide 1030-1045 (Protein NYNRIN), 16-mer library wild type / NSP3 UBl1 (ORF1ab Nsp3a Ub1, residues 819-925) (parent)
chain 1: EAPSLSEEILRALSLH
chain 2: B2 chain 2
B4: KIAA1671 peptide 600-615 (Uncharacterized protein KIAA1671), 16-mer library wild type / MDM2 SWIB (MDM2 SWIB/MDM2 domain, residues 17-125) (parent)
chain 1: TPEDDRSFQTVWATVF
chain 2: SQIPASEQETLVRPKPLLLKLLKSVGAQKDTYTMKEVLFYLGQYIMTKRLYDEKQQHIVYCSNDLLGDLFGVPSFSVKEHRKIYTMIYRNLVVVNQQESSDSGTSVSEN

Variants of: B1
Experiment: proteomic peptide phage display deep mutational scan (ProP-PD DMS): M13 P8 16-mer library selected against immobilised GST-tagged bait for four days (rounds), NGS of the eluted pools per day and pseudo-replica
Conditions: with PEX14 Pex14 (PEX14 PEX14, residues 16-84); bait immobilised on MaxiSorp plates (10 µg), library pre-cleared on GST, 2 h binding at 4 °C, five washes; one round per day, days 1-4; value from days 2 and 3; keep out of graded; scale: average fractional NGS count over selection days 2 and 3
Variant chain 1 E2Q has a screen value of 5.27e-05. Variant chain 1 F8D has a screen value of 0.000118. chain 1 F8K was tested, and the screen value was 0. In the case of chain 1 F8H, the screen value is reported as 0.000234. Work on chain 1 F8I yielded a screen value of 9.8e-05. Variant chain 1 F8V has a screen value of 0. For chain 1 Q12T, the screen value was 0.000175. chain 1 Q12N was tested, and the screen value was 0.000241. chain 1 Q12R was tested, and the screen value was 0. With chain 1 Q11T the screen value was 0. chain 1 Q11D was tested, and the screen value was 0. In the case of chain 1 I9S, the screen value is reported as 0.00015. With chain 1 I9P the screen value was 0.000232. Work on chain 1 S15M yielded a screen value of 0.000166. With chain 1 S15E the screen value was 0.000269. For chain 1 S15N, the screen value was 0. In the case of chain 1 S15F, the screen value is reported as 9.56e-05. chain 1 E7M was tested, and the screen value was 0.000317. chain 1 E7P showed a screen value of 0.000118. chain 1 E7F gave a screen value of 0.00013. Work on chain 1 E7R yielded a screen value of 0.000213. Variant chain 1 E7N has a screen value of 0.000491. For chain 1 E7S, the screen value was 0.000242. chain 1 W4N was tested, and the screen value was 0. Work on chain 1 W4Q yielded a screen value of 0. chain 1 W4H showed a screen value of 5.68e-05. chain 1 W4R showed a screen value of 0.000107. Variant chain 1 W4G has a screen value of 6.63e-05. chain 1 W4P gave a screen value of 0. For chain 1 W4D, the screen value was 0.000272. For chain 1 W4L, the screen value was 9.31e-05. Variant chain 1 A6Q has a screen value of 0.000319. For chain 1 A6H, the screen value was 0.000232. For chain 1 G13N, the screen value was 0.000117. Variant chain 1 G13R has a screen value of 0. Variant chain 1 G13L has a screen value of 0. Work on chain 1 Q10S yielded a screen value of 0.00027. For chain 1 Q3F, the screen value was 0. Work on chain 1 Q3E yielded a screen value of 0.000171. In the case of chain 1 Q3Y, the screen value is reported as 9.56e-05. With chain 1 T14Y the screen value was 0.000275. In the case of chain 1 A1L, the screen value is reported as 0.000125. chain 1 A1F gave a screen value of 0.00013. chain 1 A1G showed a screen value of 0. Work on chain 1 A5V yielded a screen value of 0.000326. Variant chain 1 A5G has a screen value of 0. With chain 1 A5P the screen value was 0.000159.

Variants of: B2
Experiment: not given
Conditions: with NSP3 UBl1 (ORF1ab Nsp3a Ub1, residues 819-925); bait immobilised on MaxiSorp plates (10 µg), library pre-cleared on GST, 2 h binding at 4 °C, five washes; one round per day, days 1-4; value from days 2 and 3; keep out of graded; scale: average fractional NGS count over selection days 2 and 3
chain 1 G5N showed a screen value of 0. Work on chain 1 G5S yielded a screen value of 1.04e-05. Variant chain 1 G5I has a screen value of 4.53e-05. In the case of chain 1 G5T, the screen value is reported as 0. With chain 1 G5A the screen value was 5.46e-06. Work on chain 1 L8K yielded a screen value of 0. Work on chain 1 L8E yielded a screen value of 0. In the case of chain 1 L8A, the screen value is reported as 0. With chain 1 L8N the screen value was 0. chain 1 L8H showed a screen value of 0. Work on chain 1 L8Q yielded a screen value of 0. In the case of chain 1 L8S, the screen value is reported as 0. chain 1 Y12A was tested, and the screen value was 0. In the case of chain 1 Y12V, the screen value is reported as 0. chain 1 Y12F gave a screen value of 0.000754. chain 1 Y12S showed a screen value of 0. With chain 1 R16F the screen value was 0.000746. chain 1 R16Y was tested, and the screen value was 0.0506. chain 1 R16Q was tested, and the screen value was 0.00132. With chain 1 R16T the screen value was 0.000892. In the case of chain 1 R16M, the screen value is reported as 7.36e-05. Work on chain 1 R16I yielded a screen value of 1.03e-05. With chain 1 R16H the screen value was 0.000164. In the case of chain 1 R16S, the screen value is reported as 4.51e-05. chain 1 L13S gave a screen value of 0. For chain 1 L13E, the screen value was 0. chain 1 L7S gave a screen value of 0. With chain 1 L7Q the screen value was 0. chain 1 L7T showed a screen value of 0. In the case of chain 1 L11I, the screen value is reported as 0.000119. With chain 1 L11K the screen value was 0. chain 1 L11Y was tested, and the screen value was 0. Variant chain 1 L11D has a screen value of 0. chain 1 L11A showed a screen value of 0. Work on chain 1 L11P yielded a screen value of 0. chain 1 L11V was tested, and the screen value was 9.51e-06. With chain 1 L11R the screen value was 0. Work on chain 1 D3E yielded a screen value of 7.04e-06. chain 1 D3N was tested, and the screen value was 1.14e-05. Variant chain 1 D9E has a screen value of 2.36e-05. For chain 1 D9T, the screen value was 7.34e-06. For chain 1 D9S, the screen value was 1.09e-05. chain 1 D9P gave a screen value of 0.000642. For chain 1 Q10M, the screen value was 3.19e-06. In the case of chain 1 Q10A, the screen value is reported as 0. Variant chain 1 Q10W has a screen value of 0. chain 1 Q10L gave a screen value of 0. chain 1 E4P was tested, and the screen value was 0. Variant chain 1 E4F has a screen value of 0. With chain 1 A14I the screen value was 0. Variant chain 1 A14Y has a screen value of 0. For chain 1 A14Q, the screen value was 0. In the case of chain 1 A14D, the screen value is reported as 0. chain 1 A14R was tested, and the screen value was 6.24e-06. In the case of chain 1 S2H, the screen value is reported as 1.09e-05. chain 1 S2V gave a screen value of 8.33e-06. For chain 1 S2Q, the screen value was 0.000342. chain 1 S2I was tested, and the screen value was 0. For chain 1 S2E, the screen value was 0. Variant chain 1 S2A has a screen value of 1.93e-05. Work on chain 1 S2M yielded a screen value of 8.73e-06. chain 1 S2L showed a screen value of 1.56e-05. chain 1 S2G was tested, and the screen value was 1.09e-05. chain 1 S2F gave a screen value of 4.76e-06. chain 1 A6K was tested, and the screen value was 0. For chain 1 A6L, the screen value was 2.33e-05. chain 1 A6F showed a screen value of 1.11e-05. chain 1 A6M showed a screen value of 1.23e-05. chain 1 A6R was tested, and the screen value was 1.8e-05. For chain 1 L15I, the screen value was 7.04e-06. Work on chain 1 L15N yielded a screen value of 0.

Variants of: B3
Experiment: not given
Conditions: with NSP3 UBl1 (ORF1ab Nsp3a Ub1, residues 819-925); bait immobilised on MaxiSorp plates (10 µg), library pre-cleared on GST, 2 h binding at 4 °C, five washes; one round per day, days 1-4; value from days 2 and 3; keep out of graded; scale: average fractional NGS count over selection days 2 and 3
With chain 1 I9E the screen value was 0. In the case of chain 1 I9A, the screen value is reported as 0. Work on chain 1 A2S yielded a screen value of 0. With chain 1 S4V the screen value was 0. Variant chain 1 S4M has a screen value of 0. chain 1 L5N showed a screen value of 0. chain 1 L5H gave a screen value of 0. chain 1 L5G gave a screen value of 0. chain 1 L10D was tested, and the screen value was 0. Variant chain 1 L15W has a screen value of 0. chain 1 L13F was tested, and the screen value was 0. For chain 1 L13H, the screen value was 0. chain 1 L13V showed a screen value of 0. For chain 1 L13R, the screen value was 0. For chain 1 L13M, the screen value was 0. With chain 1 R11P the screen value was 0. chain 1 R11V showed a screen value of 0. In the case of chain 1 R11L, the screen value is reported as 0. Variant chain 1 E8P has a screen value of 0. Work on chain 1 E8N yielded a screen value of 0.

Variants of: B4
Experiment: proteomic peptide phage display deep mutational scan (ProP-PD DMS): M13 P8 16-mer library selected against immobilised GST-tagged bait for four days (rounds), NGS of the eluted pools per day and pseudo-replica
Conditions: with MDM2 SWIB (MDM2 SWIB/MDM2 domain, residues 17-125); bait immobilised on MaxiSorp plates (10 µg), library pre-cleared on GST, 2 h binding at 4 °C, five washes; one round per day, days 1-4; value from days 2 and 3; keep out of graded; scale: average fractional NGS count over selection days 2 and 3
chain 1 S7P was tested, and the screen value was 2.82e-05. chain 1 S7N showed a screen value of 5.84e-05. For chain 1 V11T, the screen value was 0. Variant chain 1 V11W has a screen value of 0.00167. Work on chain 1 F8R yielded a screen value of 0. With chain 1 A13S the screen value was 0.000227. In the case of chain 1 A13H, the screen value is reported as 0.000327. chain 1 A13G was tested, and the screen value was 0. Work on chain 1 Q9W yielded a screen value of 0.000575. chain 1 Q9T was tested, and the screen value was 4.79e-05. For chain 1 Q9P, the screen value was 7.92e-05. In the case of chain 1 F16D, the screen value is reported as 0. With chain 1 R6A the screen value was 0.000223. chain 1 P2I was tested, and the screen value was 0.000159. Work on chain 1 P2E yielded a screen value of 6.83e-05. In the case of chain 1 P2G, the screen value is reported as 0.000243. For chain 1 P2M, the screen value was 0.000288. chain 1 T14R was tested, and the screen value was 0.00282. chain 1 T14G gave a screen value of 5.64e-05. In the case of chain 1 T14M, the screen value is reported as 0.00063. In the case of chain 1 T14S, the screen value is reported as 0.000516. Work on chain 1 D5I yielded a screen value of 1.66e-05. chain 1 D5G gave a screen value of 0.00021. In the case of chain 1 D5K, the screen value is reported as 1.66e-05. chain 1 W12K showed a screen value of 9.9e-05. Variant chain 1 W12T has a screen value of 9.54e-05. For chain 1 T10Y, the screen value was 0.000166. In the case of chain 1 T10P, the screen value is reported as 1.43e-05. Variant chain 1 T10M has a screen value of 0.00046.
